Results taken from patent publication US20070073040A1, “Anti-obesity polypeptides” (Yonsei University, priority 2001, published 2007).
Values joined by “and” are separate entries in the source; they are usually repeats but may differ in a detail not shown here. Identical values can stand only once.

Assays:
[1] = clinical test, cited from earlier work
[2] = Body weight of ZDF rats with nonfunctional Leptin receptor treated with SynLeptin polypeptides; assay type: in vivo, rat; conditions: 12-week-old ZDF rats; injected two times every two weeks into hypoderm; after about 30 days; saline control 8.5% increase
Method: FIG. 2 illustrates weigh loss when SynLeptin-1 or 2 polypeptide was injected two times every two weeks into the hypoderm of 12-week-old ZFD rats with non-functional Leptin receptor.
(§1) 4 white rabbits with 1.2 kg body weight were divided into a control group and an experimental group having two rabbits, respectively. The purified SynLeptin-1 or -2 protein (500-700 μg or saline was mixed with Adjuvant 2 ml (Sigma), and then injected into 4 different parts of the rabbit hypoderm. After 2 weeks, an equivalent amount of the protein-Adjuvant mixture was injected, and then third injection was performed after 2 weeks. Thereafter, body weight loss was measured after 10 days. The result was as follows. The body weight of the experimental group treated with SynLeptin-1 was 1.8 kg and 2.08 kg, respectively (average 1.94 kg), while the body weight of the control group was 2.5 kg and 2.45 kg, respectively (average 2.48 kg). […] Also we treated the ZDF rats with nonfunctional Leptin receptor gene with SynLeptin-1 or -2 polypeptides for 30 days (FIG. 2).

[3] = Body weight of white rabbits after subcutaneous injection of protein-Adjuvant mixture; assay type: in vivo, rabbit; conditions: 10 days after third injection
Method: as §1

[4] = tested on: adipose tissue; experiment: Autopsy and pathological examination of experimental rabbits; assay type: in vivo, rabbit; conditions: polypeptide-Adjuvant mixture injected three times into hypoderm every two weeks, versus saline-Adjuvant
Method: In FIG. 3A, arrows indicate distribution of adipose tissue in various organs in the test rabbit that SynLeptin-2 polypeptide-Adjuvant mixture was injected three times into the hypoderm every two weeks. In FIG. 3B, arrows indicate distribution of adipose tissue in various organs injected with saline-Adjuvant mixture three times into the hypoderm every two weeks.
We analyzed the reasons for the decrease in body weight by autopsy and pathological examinations. […] When the rabbits were sacrificed and autopsy was carried out, no pathological abnormali in their organs was observed. However, remarkable reduction of fat mass not only in abdominal and subcutaneous adipose tissues but also tissues surrounding various organs was evident.

Leptin: 16 kDa ob polypeptide hormone synthesized in adipose tissue, regulating body weight
weight response upon Leptin treatment (other obese people) ([1]; other obese people): did not lost weight | body weight lost ([1]; some obese people): 7.1 kg

B1: SynLeptin-1: Tat polypeptide fragment, 71 (b9: 72) amino acids from N-terminus of Tat, expressed from pGEX4T-3-SynLeptin-1 (protein)
chain: MEPVNPSLEPWKHPGSQPKTACTNCYCAKCCFHCQVCFITKALGISYGRAKRRQRRRPPQGSQTHQVSLSK
modifications: 71 amino acid Tat mutant
weight increase [2]: 3.5% | body weight of individual rabbit of the experimental group ([3]; rabbits, starting body weight 1.2 kg, control 2.5 and 2.45 kg): 1.8 kg and 2.08 kg | average body weight of the experimental group ([3]; two rabbits, control average 2.48 kg): 1.94 kg

B2: SynLeptin-2: Tat polypeptide of 86 amino acids from N-terminus of Tat, expressed from pGEX4T-3-SynLeptin-2 (protein)
chain: MEPVDPRLEPWKHPGSQPKTACTNCYCKKCCFHCQVCFMTKALGISYGRKKRRQRRRAHQNSQTHQASLSKQPTSQSRGDPTGPKE
modifications: 86 amino acid Tat mutant
notes: Tat polypeptide of 86 amino acids from N-terminus of Tat, expressed from pGEX4T-3-SynLeptin-2
weight loss (decrease of body weight) [2]: 4.3% | fat / adipose tissue at autopsy [4]: markedly reduced fat in various tissues including adipose tissue
